Test results published in patent publication US20230391828A1 (TECHNISCHE UNIVERSIT T DRESDEN, published 2023).
Bridge positions count the residues as written; N and C are the ends. Square brackets hold non-standard residues; d marks the D form. R8 = C=CCCCCCC[C@@](C)(N)C(=O)O; S5 = C=CCCC[C@](C)(N)C(=O)O; Pra = C#CC[C@H](N)C(=O)O

What was measured:
[1] = biological target: T1, Cullin 1 (human (HeLa K cells), UniProt Q13616 1-776); assay: pull-down from HeLa K cell extract with G3-6Pra on azide magnetic beads, western blot
T1 construct: Detected by western blot after pull-down from HeLa K cell extract; also called Cullin 1, subunit of E3 ubiquitin ligases related to the APC/C
Experimental: (§1) As a control, G3-N4Pra negative control molecule was used. Western blot analysis was performed and indicated proteins were detected using near-infrared fluorescence imaging. GAPDH serves as a control for unspecific binding.
(§2) In mean time, inhibitor molecules containing Propargyl (Pra) chemical group were covalently attached to the azide agarose or azide magnetic resin (Jena Bioscience) by Cu(I)-catalysed azide-alkyne cycloaddition reaction. […] The reaction was catalysed by 1 mM CuSO₄, 0.1 mM TBTA (Sigma-Aldrich) and 1 mM Sodium ascorbate and was performed on the rotating wheel for 30 min at room temperature in the volume of 1 ml. Subsequently, the resin was washed 5 times with the extraction buffer. The inhibitor-agarose resin was added to 1 mg of HeLa K cell extract and the inhibitor-magnetic resin was added to 0.5 mg of HeLa K cell extract followed by incubation at 4° C. for 2 h. Followed by washing the resin 5 times with the extraction buffer. Pull-down proteins were eluted by boiling for 15 min with 1×LDS sample buffer supplemented with 100 mM DTT (agarose resin) or by incubation with 1×LDS sample buffer for 10 min at room temperature followed by taking supernatant that was supplemented with 100 mM DTT and boiling it for 10 min. Samples were subjected to SDS PAGE and Western blot analysis.

[2] = biological target: T2, RBX1 (human (HeLa K cells), UniProt P62877 2-108); assay: as above
T2 construct: Detected by western blot after pull-down from HeLa K cell extract
T2 sequence (P62877 2-108 limits assumed): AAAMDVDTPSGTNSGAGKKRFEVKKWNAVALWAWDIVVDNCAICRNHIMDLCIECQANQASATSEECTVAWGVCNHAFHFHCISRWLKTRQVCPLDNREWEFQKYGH
Experimental: as §1, §2

T1 sequence (Q13616 whole entry): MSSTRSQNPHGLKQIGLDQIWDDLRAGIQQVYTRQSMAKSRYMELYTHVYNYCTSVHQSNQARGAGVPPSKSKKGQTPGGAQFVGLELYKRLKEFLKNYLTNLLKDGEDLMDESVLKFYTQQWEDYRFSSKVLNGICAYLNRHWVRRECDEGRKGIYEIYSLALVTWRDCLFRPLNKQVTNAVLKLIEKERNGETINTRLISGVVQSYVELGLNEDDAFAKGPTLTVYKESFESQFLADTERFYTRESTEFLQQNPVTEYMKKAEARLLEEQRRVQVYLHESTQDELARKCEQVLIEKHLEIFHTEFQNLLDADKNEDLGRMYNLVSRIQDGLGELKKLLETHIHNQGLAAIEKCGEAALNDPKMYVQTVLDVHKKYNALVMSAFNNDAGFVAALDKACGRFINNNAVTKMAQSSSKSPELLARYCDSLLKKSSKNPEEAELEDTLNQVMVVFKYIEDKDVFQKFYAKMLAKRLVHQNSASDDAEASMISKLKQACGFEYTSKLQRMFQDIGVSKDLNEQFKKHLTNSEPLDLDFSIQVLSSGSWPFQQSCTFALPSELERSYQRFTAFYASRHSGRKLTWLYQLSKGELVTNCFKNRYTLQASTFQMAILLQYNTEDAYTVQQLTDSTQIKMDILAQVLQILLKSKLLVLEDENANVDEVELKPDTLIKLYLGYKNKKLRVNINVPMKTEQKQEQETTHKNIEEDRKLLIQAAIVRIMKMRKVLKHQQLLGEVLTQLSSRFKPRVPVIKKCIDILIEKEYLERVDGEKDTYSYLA

binding result [1]: no binding
binding result [2]: no binding
B1: G3-6Pra, Ac-cyclo(4,11)-EWPraZIKEIQRXRRA-NH2 (peptide)
peptide: Ac-EW[Pra][R8]IKEIQR[S5]RRA-NH2
modifications: staple 4-11; not fully specified (residue 3); printed as Ac-cyclo(4,11)-EWWZIKEIQRXRRA-NH2
notes: In the pull-down it was covalently attached to azide magnetic beads through Pra; also called ID; NO; 37
